This data set has as its target T1, APG30126-L32-nAPG07433.1 (synthetic).
T1 chain: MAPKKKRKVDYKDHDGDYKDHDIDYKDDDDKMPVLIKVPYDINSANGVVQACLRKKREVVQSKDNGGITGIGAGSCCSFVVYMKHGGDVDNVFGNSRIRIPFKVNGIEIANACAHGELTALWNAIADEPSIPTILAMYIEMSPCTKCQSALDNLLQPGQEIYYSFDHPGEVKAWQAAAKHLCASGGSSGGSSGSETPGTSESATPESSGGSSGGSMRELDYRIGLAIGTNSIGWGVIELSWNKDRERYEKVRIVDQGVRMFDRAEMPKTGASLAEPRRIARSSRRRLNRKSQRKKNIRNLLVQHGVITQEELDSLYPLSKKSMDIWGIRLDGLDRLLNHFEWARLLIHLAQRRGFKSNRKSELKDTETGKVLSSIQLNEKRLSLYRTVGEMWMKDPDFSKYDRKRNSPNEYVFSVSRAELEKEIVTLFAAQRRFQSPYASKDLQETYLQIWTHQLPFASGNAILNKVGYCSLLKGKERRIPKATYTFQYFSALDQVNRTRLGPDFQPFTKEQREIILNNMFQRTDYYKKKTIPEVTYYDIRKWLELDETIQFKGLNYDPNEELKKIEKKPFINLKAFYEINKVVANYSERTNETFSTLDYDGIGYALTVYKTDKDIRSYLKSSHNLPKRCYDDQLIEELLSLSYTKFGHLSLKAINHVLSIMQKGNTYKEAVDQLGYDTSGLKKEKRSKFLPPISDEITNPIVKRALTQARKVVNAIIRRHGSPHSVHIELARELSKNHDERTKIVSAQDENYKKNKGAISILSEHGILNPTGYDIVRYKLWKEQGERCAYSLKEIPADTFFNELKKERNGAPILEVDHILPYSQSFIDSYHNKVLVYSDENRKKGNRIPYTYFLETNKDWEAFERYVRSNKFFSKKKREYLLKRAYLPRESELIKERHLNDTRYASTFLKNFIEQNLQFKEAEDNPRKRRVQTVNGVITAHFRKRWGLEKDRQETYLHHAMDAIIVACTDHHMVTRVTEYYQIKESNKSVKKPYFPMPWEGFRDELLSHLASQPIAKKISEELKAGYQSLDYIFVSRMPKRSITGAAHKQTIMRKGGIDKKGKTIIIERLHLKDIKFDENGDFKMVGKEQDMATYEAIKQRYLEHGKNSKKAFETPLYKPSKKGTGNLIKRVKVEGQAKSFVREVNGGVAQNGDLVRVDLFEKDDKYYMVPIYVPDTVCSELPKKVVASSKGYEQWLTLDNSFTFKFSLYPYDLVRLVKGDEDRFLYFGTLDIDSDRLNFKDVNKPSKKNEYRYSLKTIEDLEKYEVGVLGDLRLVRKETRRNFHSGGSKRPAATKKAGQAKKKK
The data set is described as follows: cell_activity; HEK293FT; PAM SEQ 152. To be noted: tags: SV40 NLS, 3xFLAG N-term; nucleoplasmin NLS C-term. An outline of the steps: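 Editing read out by next-generation sequencing (MiSeq 2×250) of PCR amplicons spanning the target site, analysed for INDELs or % cytosine conversion per position (position 1 nearest PAM).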

B1: SGN000930 sgRNA ; SGN000930 target (ssRNA ; dsDNA)
RNA: GAACAACUCAAAUGGAAAUGAAUAUGUCAUAGUUCCAUGAAAGCCAAAAGUGGCUUUGAUGUUUCUAUGAUAAGGGUUUCGGCCCGUGGCGUCGGGGAUCGCCUGCCCAUUCCGAUGGGCUUCUCCCCAUUUAUU
DNA 1: GAACAACTCAAATGGAAATGAATAT
DNA 2: ATATTCATTTCCATTTGAGTTGTTC
Molecule B1 had an activity of 1.38 % mutated reads.
